Changes are numbered by the printed parent chain. Names may count otherwise.

The labels stand for the following.
B1: aqGyrB NTD (Aquifex aeolicus VF5) (protein)
chain: MKKRQSQTPQEYTAEAIKAVSGLEHVRLRPAMYIGDIGERGLHHLIWEILDNAVDEAVAGYARNISVTIHRDNSVTVEDDGRGIPVDIHPETGKPAVEMVFTMLGAGGKFEKKVYTYSGGLHGVGASVVNALSEWLIVEVYRDGKIYRMAFKRGEVVEPLHVVGETKKRGTKVSFKPDPEIFETTEIKFDIVEKRVRELAYLNPEVKFELTDERLGKHLIYKFDRGIEELVKYLNEGKEPLFKDIIRIQGEKEGVIVDIAFQYVKDYKERIESFVNNIKTVEGGTHVTGFRSGLSKAVIRMAQGLKLAKELKKSFTGEDVREGLTAVVACKVPNPQFEGQTKTKLGNQNVKQIVESITYDFLTSYFEKKRDVLKAIVEKAIEAALAREAAKKAKELV
B2: full-length aqMutL (Aquifex aeolicus VF5) (protein)
chain: MFVKLLPPEVRKVIAAGEVIESPVDVVKELVENSLDAKATKVEVEIVKGGKRLIRVKDNGTGIHPEDVEKVVLQGATSKIETEKDLMNISTYGFRGEALYSISSVSKFKLRSRFFQEKEGKEIEVEAGNILGTRRVGMPVGTEVEVRDLFFNLPVRRKFLKKEDTERRKVLELIKEYALTNPEVEFTLFSEGRETLKLKKSSLKERVEEVFQTKTEELYAEREGITLRAFVSRNQRQGKYYVFINKRPIQNKNLKEFLRKVFGYKTLVVLYAELPPFMVDFNVHPKKKEVNILKERKFLELVRELAGKEKPIVDIPLSQPVKTYKPTYEILGQMDETFILVKDSEYLYFVDQHLLEERINYEKLKDENLACRISVKAGQKLSEEKIRELIKTWRNLENPHVCPHGRPIYYKIPLREIYEKVGRNY
B3: full-length aqMutL (Aquifex aeolicus VF5; K287A) (protein)
chain: B2 chain with K287A
B4: full-length aqMutL (Aquifex aeolicus VF5; K28E) (protein)
chain: B2 chain with K28E
B5: full-length aqMutL (Aquifex aeolicus VF5; K79R) (protein)
chain: B2 chain with K79R
B6: full-length aqMutL (Aquifex aeolicus VF5; N282A) (protein)
chain: B2 chain with N282A
B7: ProS2-fused human PMS2 NTD (Homo sapiens; K91R) (protein)
chain: MERAESSSTEPAKAIKPIDRKSVHQICSGQVVLSLSTAVKELVENSLDAGATNIDLKLKDYGVDLIEVSDNGCGVEEENFEGLTLKHHTSRIQEFADLTQVETFGFRGEALSSLCALSDVTISTCHASAKVGTRLMFDHNGKIIQKTPYPRPRGTTVSVQQLFSTLPVRHKEFQRNIKKEYAKMVQVLHAYCIISAGIRVSCTNQLGQGKRQPVVCTGGSPSIKENIGSVFGQKQLQSLIPFVQLPPSDSVCEEYGLSCSDALHNLFYISGFISQCTHGVGRSSTDRQFFFINRRPCDPAKVCRLVNEVYHMYNRHQYPFVVLNISVDSECVDINVTPDKRQILLQEEKLLLAVLKTSLIGMFDS
B8: ProS2-fused human PMS2 NTD (Homo sapiens) (protein)
chain: B7 chain with R91K
B9: ProS2-fused human PMS2 NTD (Homo sapiens; K340E) (protein)
chain: B7 chain with R91K, K340E
B10: ProS2-fused human PMS2 NTD (Homo sapiens; K340A) (protein)
chain: B7 chain with R91K, K340A
B11: histidine-tagged human MLH1 NTD (Homo sapiens; K311E) (protein)
chain: MSFVAGVIRRLDETVVNRIAAGEVIQRPANAIKEMIENCLDAKSTSIQVIVKEGGLKLIQIQDNGTGIRKEDLDIVCERFTTSKLQSFEDLASISTYGFRGEALASISHVAHVTITTKTADGKCAYRASYSDGKLKAPPKPCAGNQGTQITVEDLFYNIATRRKALKNPSEEYGKILEVVGRYSVHNAGISFSVKKQGETVADVRTLPNASTVDNIRSIFGNAVSRELIEIGCEDKTLAFKMNGYISNANYSVKKCIFLLFINHRLVESTSLRKAIETVYAAYLPKNTHPFLYLSLEISPQNVDVNVHPTEHEVHFLHEESILERVQQHIESKLLG
B12: histidine-tagged human MLH1 NTD (Homo sapiens) (protein)
chain: B11 chain with E311K

Substrate in one data set: Nc1ncnc2c1ncn2[C@@H]1O[C@H](COP(=O)(O)OP(=O)(O)OP(=O)(O)O)[C@@H](O)[C@H]1O
Briefly: phosphate release, BIOMOL Green. The data set is classed as biochemical, Aquifex aeolicus. Conditions: 50 mM HEPES-KOH pH 7.5, 100 mM NaCl, 5 mM MgCl2, 70 °C.
On to B1, for which the Michaelis-Menten constant (Km) (usually the concentration of substrate that gives half-maximal velocity) is 250 ± 41 µM and the turnover number (kcat) (commonly the maximal rate divided by the concentration of active sites) came to 0.0367 ± 0.00217 s⁻¹.

As for B2, the Km came out at 360 ± 190 µM and the kcat amounted to 0.025 ± 0.0025 s⁻¹.

Regarding B3, the Michaelis constant (Km) was 370 ± 36 µM and the turnover number (kcat) was determined as 0.00767 ± 0.000383 s⁻¹.

B4: the Michaelis-Menten constant (Km) came to 900 ± 73 µM and the catalytic constant (kcat) amounted to 0.00733 ± 0.000367 s⁻¹.

With B5, the Km was 610 ± 130 µM and the catalytic constant (kcat) amounted to 0.00283 ± 0.000233 s⁻¹.

Turning to B6, the Km amounted to 560 ± 54 µM and the kcat is 0.000483 ± 1.67e-05 s⁻¹.

Substrate in another data set: Nc1ncnc2c1ncn2[C@@H]1O[C@H](COP(=O)(O)OP(=O)(O)OP(=O)(O)O)[C@@H](O)[C@H]1O
The data set is described as follows: phosphate release, BIOMOL Green. The data set is classed as biochemical, Homo sapiens. Conditions: 50 mM HEPES-KOH pH 7.5, 100 mM NaCl, 5 mM MgCl2, 37 °C.
B7: the Michaelis-Menten constant (Km) came out at 300 ± 42 µM and the kcat turned out to be 0.000733 ± 2.83e-05 s⁻¹.

With B8, the Km was determined as 190 ± 39 µM and the catalytic constant (kcat) was 0.00617 ± 0.0003 s⁻¹.

B9: the Michaelis constant (Km) amounted to 80 ± 12 µM and the kcat came out at 0.000483 ± 3e-05 s⁻¹.

In the case of B10, the Michaelis-Menten constant (Km) came out at 160 ± 93 µM and the turnover number (kcat) stood at 0.00105 ± 0.000135 s⁻¹.

For the protein B11, the Km was determined as 750 ± 130 µM and the turnover number (kcat) was 0.000333 ± 5e-05 s⁻¹.

Regarding B12, the Michaelis-Menten constant (Km) stood at 790 ± 75 µM and the turnover number (kcat) was determined as 0.00267 ± 0.000108 s⁻¹.

The values are drawn from paper doi:10.1101/2021.07.09.451751v1.
